Patent publication US20150174289A1 (OMRIX BIOPHARMACEUTICALS, published 2015)

Molecular target: T1, fibrin monomers (UniProt P02671 36-629; P02675 45-491; P02679 27-437)
T1 sequence (looked up) 1: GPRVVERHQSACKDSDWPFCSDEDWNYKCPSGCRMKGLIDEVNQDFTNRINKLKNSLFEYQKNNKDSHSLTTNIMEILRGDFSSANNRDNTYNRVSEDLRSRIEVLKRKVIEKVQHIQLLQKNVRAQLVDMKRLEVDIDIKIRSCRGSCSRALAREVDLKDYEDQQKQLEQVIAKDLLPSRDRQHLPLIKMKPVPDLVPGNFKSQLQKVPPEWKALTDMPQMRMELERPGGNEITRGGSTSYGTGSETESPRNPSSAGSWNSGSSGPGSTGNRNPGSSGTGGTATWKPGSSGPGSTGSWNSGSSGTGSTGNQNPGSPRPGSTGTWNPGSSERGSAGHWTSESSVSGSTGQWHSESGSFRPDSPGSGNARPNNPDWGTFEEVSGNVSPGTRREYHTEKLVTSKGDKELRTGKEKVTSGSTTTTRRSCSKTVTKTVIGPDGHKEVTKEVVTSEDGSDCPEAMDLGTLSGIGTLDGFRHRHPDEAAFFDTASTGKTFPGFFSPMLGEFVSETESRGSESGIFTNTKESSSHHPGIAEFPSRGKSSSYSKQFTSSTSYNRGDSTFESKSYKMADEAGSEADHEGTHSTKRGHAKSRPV
T1 sequence (looked up) 2: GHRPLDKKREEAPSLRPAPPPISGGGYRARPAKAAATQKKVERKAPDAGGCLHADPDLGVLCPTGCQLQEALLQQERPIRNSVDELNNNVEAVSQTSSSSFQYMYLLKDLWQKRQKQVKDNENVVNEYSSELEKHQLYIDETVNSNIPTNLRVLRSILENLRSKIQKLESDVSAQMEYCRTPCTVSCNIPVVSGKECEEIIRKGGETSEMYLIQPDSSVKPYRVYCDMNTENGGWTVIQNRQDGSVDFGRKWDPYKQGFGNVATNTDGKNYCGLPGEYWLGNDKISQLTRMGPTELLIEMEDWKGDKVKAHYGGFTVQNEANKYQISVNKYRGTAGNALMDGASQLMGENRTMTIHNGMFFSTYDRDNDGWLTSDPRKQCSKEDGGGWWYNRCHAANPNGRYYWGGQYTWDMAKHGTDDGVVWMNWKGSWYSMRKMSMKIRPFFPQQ
T1 sequence (looked up) 3: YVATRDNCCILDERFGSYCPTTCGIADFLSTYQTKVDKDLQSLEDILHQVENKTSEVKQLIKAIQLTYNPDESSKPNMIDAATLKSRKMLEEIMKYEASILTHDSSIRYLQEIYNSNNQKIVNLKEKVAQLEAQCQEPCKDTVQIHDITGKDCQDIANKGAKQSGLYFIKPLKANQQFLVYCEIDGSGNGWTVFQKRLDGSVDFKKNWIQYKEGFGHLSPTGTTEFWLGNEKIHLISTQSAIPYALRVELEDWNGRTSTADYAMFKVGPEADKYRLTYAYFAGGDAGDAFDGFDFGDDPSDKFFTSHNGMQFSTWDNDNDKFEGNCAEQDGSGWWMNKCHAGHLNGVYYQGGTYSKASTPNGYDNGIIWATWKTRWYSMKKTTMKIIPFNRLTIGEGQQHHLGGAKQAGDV
Assay: cell-based or functional assay

B1: GPRP peptide (Gly-Pro-Arg-Pro) (peptide)
peptide: GPRP
Time to clot (1% fibrin monomers, 1 mM GPRP, 34 fold GPRP:fibrin): < 5 min | Time to clot (1% fibrin monomers, 5 mM GPRP, 170 fold GPRP:fibrin): 4 h | Time to clot (1.5% fibrin monomers, 20 mM GPRP, 453 fold GPRP:fibrin): > 2 weeks | Time to clot (3% fibrin monomers, 0.1 mM GPRP, 1.1 fold GPRP:fibrin): 5 s | Time to clot (3% fibrin monomers, 0.2 mM GPRP, 2.3 fold GPRP:fibrin): 7 s | Time to clot (3% fibrin monomers, 0.5 mM GPRP, 5.7 fold GPRP:fibrin): 11 s | Time to clot (3% fibrin monomers, 1 mM GPRP, 11.3 fold GPRP:fibrin): 13 s | Time to clot (3% fibrin monomers, 1.5 mM GPRP, 17 fold GPRP:fibrin): 22 s | Time to clot (3% fibrin monomers, 2 mM GPRP, 22.7 fold GPRP:fibrin): 28 s | Time to clot (3% fibrin monomers, 3 mM GPRP, 34 fold GPRP:fibrin): 2.5 min | Time to clot (3% fibrin monomers, 4 mM GPRP, 45 fold GPRP:fibrin): 8 min | Time to clot (3% fibrin monomers, 5 mM GPRP, 56.7 fold GPRP:fibrin): 15 min | Time to clot (3.5% fibrin monomers, 40 mM GPRP, 389 fold GPRP:fibrin): > 2 weeks
